According to patent publication CN112409487A (NINGBO SAIPO BIOTECHNOLOGY CO LTD, dated 2021):

Target: T1, 人可溶性转铁蛋白受体校准品 (human, UniProt P02786 101-760, limits assumed)
T1 construct: also called sTfR校准品
Test: double-antibody sandwich latex immunoturbidimetry on the calibrator, OD570nm

T1 sequence (P02786 101-760 limits assumed): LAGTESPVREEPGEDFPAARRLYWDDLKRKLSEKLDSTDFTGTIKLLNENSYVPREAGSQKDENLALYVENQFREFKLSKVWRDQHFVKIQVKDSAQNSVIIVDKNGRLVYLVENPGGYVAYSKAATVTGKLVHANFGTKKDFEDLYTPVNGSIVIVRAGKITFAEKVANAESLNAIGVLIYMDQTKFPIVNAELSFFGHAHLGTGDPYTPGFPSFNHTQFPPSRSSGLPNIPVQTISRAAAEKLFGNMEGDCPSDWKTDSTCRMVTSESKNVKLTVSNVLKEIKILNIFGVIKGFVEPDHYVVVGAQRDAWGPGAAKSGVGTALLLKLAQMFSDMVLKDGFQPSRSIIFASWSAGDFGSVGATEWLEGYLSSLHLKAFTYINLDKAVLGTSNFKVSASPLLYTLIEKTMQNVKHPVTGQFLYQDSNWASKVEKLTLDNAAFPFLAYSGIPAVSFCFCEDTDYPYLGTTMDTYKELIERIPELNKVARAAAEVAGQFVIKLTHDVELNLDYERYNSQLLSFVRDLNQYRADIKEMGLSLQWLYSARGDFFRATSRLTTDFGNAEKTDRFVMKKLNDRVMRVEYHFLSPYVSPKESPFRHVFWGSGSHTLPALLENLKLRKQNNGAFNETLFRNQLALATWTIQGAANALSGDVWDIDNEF

B1: 鼠单克隆抗体8E11 (antibody, V domains shown)
VH: QVQLQQSGAELVRPGTSVKISCKASGYAFTNYWLGWVKQRPGRGLEWIGDIFPGSSNTYYNEKFKGKASLTADKSSSTAYMHLSSLTSEDSAVYFCARVKDYYAMGYWGQGTSVTVSS
VL: ENVLTQSPAIMSASPGEKVTMTCSASSSVSYMNWYQQKSITSPKLWIYDTFKLASGVPGRFSGSGSGNSYSLTISSMEAEDVATYYCFQGSGYPYTFGGGTKLEIK
notes: Mouse hybridoma monoclonal antibody, purified from ascites on protein G and detected with goat anti-mouse IgG; It was coupled to latex particles in the turbidimetric assay; also called 第一单克隆抗体
  binding result: binds
